Measurements taken from PMC8961594.

How the values were obtained:
[1] = molecular target: Histone 2B (H2B) on the surface of HUVECs (human (endogenous in HUVEC)) (UniProt P62807)
[2] = molecular target: Histone 2B (H2B) on the surface of HUVECs (human (endogenous in HUVEC)) (UniProt P62807); remark: listed apart in the source

migration of Plg-treated (200 nM) HUVECs in Boyden chambers: decrease by Fab of the anti-H2B mAb (20 µg/mL) against control mouse Fab (Figure 3A) [1]: 47% | Plg-mediated migration of HUVECs in Boyden chambers: decrease by anti-H2B against Plg-treated cells with control mouse IgG (Figure 3B) [2]: 50%
Substance: Human Glu-plasminogen (ligand)
